Test results: patent publication US7807396

Tests used:
[1] = target: Aβ added to the cultures at 10 µM in a non-fibrillar state; test: cell-based or functional assay
[2] = target: human β-endorphin1-31 (human) (UniProt P01189); test: cell-based or functional assay
[3] = target: amyloid beta peptide Aβ1-40; test: cell-based or functional assay
dynorphin B-9 = dynorphin B-9 (UniProt P01213)

Sequence of human β-endorphin1-31 (human) (P01189 237-267 limits assumed): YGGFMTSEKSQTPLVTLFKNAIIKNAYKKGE

human neprilysin expressed from a lentiviral construct in primary neuronal cultures of neprilysin deficient mice (from UniProt P08473 2-750) (enzyme)
survival of neuronal cells subjected to Aβ induced neurotoxicity (% increase in cell survival) [1]: 75

insulysin purified from a thymoma cell line, EL-4 (from UniProt Q9JHR7 42-1019) (enzyme)
specific activity of enzyme purified from a thymoma cell line, EL-4 [2]: 3.3 µmols/min/mg

recombinant rat insulysin with an N-terminal His6 affinity tag, expressed in baculovirus-infected Sf9 cells (from UniProt P35559 42-1019) (enzyme)
inhibition of deposition of 125I-Aβ1-40 onto pre-deposited Aβ1-40 (% inhibition with 50 ng of insulysin) [3]: 50

trypsin
trypsin hydrolysis of the fluorogenic peptide Abz-GGFLRKHGQ-EDDnp (SEQ ID NO: 14) (dynorphin B-9): trypsin hydrolysis of the same peptide showed inhibition, not activation, by dynorphin B-9
